Residue numbers refer to the chain shown, from its start.

To fix the notation:
B1: 6.17 (antibody, V domains shown)
VH: EVQLVQSGAEVKKPGESLRISCKGSGYSVSSYWIGWVRQMPGKGLEWMGIIYPGDSDTRYSPSFQGQVTISADKSISTAFLQWISLKASDTAMYYCARLQGDCSGGSCYGHFDYWGQGTLVTVS
VL: EIVLTQSPGTLSLSPGERATLSCRASQTISSGYLAWYQQKPAQAPRLLIYVASRRATGIPDRFSGSGSGTDFTLTISRLEPEDFAVYYCQQYGSSSWTFGQGTTVEIK
notes: human IgG2 or IgG4
B2: 6.18 (antibody, V domains shown)
VH: B1 VH with S30T, F80Y, I84S, S107T
VL: B1 VL with T28S, I29V, G32S, S94T
notes: human IgG2 or IgG4
B3: 2.7 (antibody, V domains shown)
VH: EVQLVESGGGLVKPGGSLRLSCAASGFTFSNAWMSWVRQAPGKGLEWVGRIKRKTDGETTDYAAPVKGRFTISRDDSRNTLYLQMNSLKTEDTAVYYCTIYTYYYGMDVWGQGTTVTVSS
VL: DIQMTQSPSSLSASVGDRVTITCRASQSINNYLNWYQQKPGKAPKLLIYAASSLESGVPSRFSGSGSGTDFTLTISSLQPEDFATYYCQQSYSTPPTFGQGTKVEIK
notes: human IgG2 or IgG4; also called antibody 2.7
B4: 2.19 (antibody, V domains shown)
VH: QVQLQESGPGLVKPSETLSLTCTVSGDSISSYYWSWIRQPPGKGLEWIGYVYYSGSTNYNPSLKSRVTMSVDTSKNQFSLKLSSVTAADTAVYYCARDLELYAFDIWGQGTMVTVSS
VL: EIVLTQFPGTLSLSPGERVTLSCRASQSVSSTYVVWYQQKPGQAPRLLIYGASSRATGIPDRFSGSGSGTDFTLTISRLEPEDFAVYYCQQHGSSPWTFGQGTKVEIK
notes: human IgG2 or IgG4
B5: 6.44 (antibody, V domains shown)
VH: QVQLQESGPGLVKPSQTLSLICTVSGGSISRGDSYWSWIRQHPGKGLEWIGYIYYSGSTFYNPSLKSRVTISVDTSKNQFSLKLSSVTAADTAVYYCAREDRIFGVVDYWGQGTLVTVSS
VL: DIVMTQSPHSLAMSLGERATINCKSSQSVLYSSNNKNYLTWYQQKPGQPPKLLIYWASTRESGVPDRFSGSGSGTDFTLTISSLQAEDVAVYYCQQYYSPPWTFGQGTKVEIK
notes: human IgG2 or IgG4
B6: 7.7 (antibody, V domains shown)
VH: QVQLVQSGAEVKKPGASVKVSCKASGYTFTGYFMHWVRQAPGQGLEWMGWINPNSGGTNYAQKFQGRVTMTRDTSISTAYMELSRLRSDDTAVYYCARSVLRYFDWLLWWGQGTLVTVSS
VL: DIVMTQSPESLAVSLGERTTINCKSSQSVLFSSNNENHLAWYQQKPGQPPKLLIYWASTRESGVPDRFSGSGSGTDFTLTISSLQAEDVAVYYCQQYYITPCSFGQGTKLEIK
notes: human IgG2 or IgG4
B7: 7.11 (antibody, V domains shown)
VH: QVQLQESGPGLVKPPETLSLTCTVSGGSISSHYWSWIRQPAGKGLEWIGRIYTSGSTNYNPPLKSRVTMSVDTSKNQFSLKLSSVTAADTAVYYCAREGYDFWSGYYNYYYGMDVWGQGTTVTVS
VL: EIVLTQSPGTLSLSPGERATLSCRASQSVISSYLAWYQQKPGQAPRLLIYGASSRATGIPDRFSGSGSGTDFTLTISRLEPEDFAVYYCQQYGSAFTFGGGTKVEIK

In one test the target is T1, human VLA-1 α1 subunit (CD49a), full-length, on transfected CHO cells (human, UniProt P56199 29-1179). Kind of test: cell-based or functional assay.
For B1, the “IC50, adhesion of CHO-VLA-1 cells to collagen IV” value (“IC50, adhesion of CHO-VLA-1 cells” below) worked out at 0.27 nM.

As to B2, the “IC50, adhesion of CHO-VLA-1 cells” value worked out at 0.19 nM.

For the molecule B3, the “IC50, adhesion of CHO-VLA-1 cells” value is 0.08 nM.

For B4, the “IC50, adhesion of CHO-VLA-1 cells” value was found to be 0.47 nM.

B5: the “IC50, adhesion of CHO-VLA-1 cells” value came out at 0.08 nM.

As to B6, the “IC50, adhesion of CHO-VLA-1 cells” value stood at 0.59 nM.

In a further test the target is T2, human VLA-1 (alpha 1/beta 1, CD49a/CD29) on IL-2 stimulated human PBMC / T cells (human, UniProt P56199 29-1179; P05556 21-798). Kind of test: cell-based or functional assay.
Take B1: the “% adhesion of T cells to collagen IV vs no antibody, 0.5 nM mAb, no PMA” value (shortened to “% adhesion of T cells … 0.5 nM mAb, no PMA”) was found to be 76.3% and the “% adhesion of T cells to collagen IV vs no antibody, 5 nM mAb, no PMA” value (from here on “% adhesion … vs no antibody, 5 nM mAb, no PMA”) was 22.3%.

As to B2, the “% adhesion of T cells … 0.5 nM mAb, no PMA” value worked out at 85% and the “% adhesion … vs no antibody, 5 nM mAb, no PMA” value stood at 19.7%.

B3: the “% adhesion of T cells … 0.5 nM mAb, no PMA” value was found to be 33.5% and the “% adhesion … vs no antibody, 5 nM mAb, no PMA” value came out at 12.1%.

In the case of B5, the “% adhesion of T cells … 0.5 nM mAb, no PMA” value was 70.7% and the “% adhesion … vs no antibody, 5 nM mAb, no PMA” value was determined as 25%.

With B6, the “% adhesion of T cells … 0.5 nM mAb, no PMA” value came out at 113% and the “% adhesion … vs no antibody, 5 nM mAb, no PMA” value amounted to 66.5%.

In another test the target is T2, human VLA-1 (alpha 1/beta 1, …). In words: cell-based or functional assay. This is another data set of the same source.
For the molecule B7, the “T cell adhesion to immobilized collagen IV, relative estimated IC50” value was over 5 nM.

For the next test the target is unchanged. In words: cell-based or functional assay. This is another data set of the same source.
Consider B1, for which the “% adhesion of IL-2 activated T cells to collagen IV vs no antibody, 10 µg/ml, +PMA” value (“% adhesion … vs no antibody, 10 µg/ml, +PMA” below) is 22.5% and the “% adhesion of IL-2 activated T cells to collagen IV vs no antibody, 10 µg/ml, -PMA” value (“% adhesion … vs no antibody, 10 µg/ml, -PMA” for short) is 64.1%.

B2: the “% adhesion … vs no antibody, 10 µg/ml, +PMA” value came to 31.2% and the “% adhesion … vs no antibody, 10 µg/ml, -PMA” value stood at 58.5%.

As for B3, the “% adhesion … vs no antibody, 10 µg/ml, +PMA” value stood at 18% and the “% adhesion … vs no antibody, 10 µg/ml, -PMA” value was determined as 30%.

Consider B5, for which the “% adhesion … vs no antibody, 10 µg/ml, +PMA” value was 23.7% and the “% adhesion … vs no antibody, 10 µg/ml, -PMA” value stood at 49.2%.

Turning to B6, the “% adhesion … vs no antibody, 10 µg/ml, +PMA” value worked out at 27.4% and the “% adhesion … vs no antibody, 10 µg/ml, -PMA” value was 40.1%.

The target in the next test is T3, human CD49a I domain T204A (human, UniProt P56199 151-364, T204A).
T3 construct: domain: I domain; not shown: myc and His tags
Kind of test: ELISA on secreted mutant I domain. A general note: An ELISA detects its analyte on a solid surface through an enzyme-linked reagent.
As for B1, the binding result is given as “binds”.

Regarding B2, the binding result was “binds”.

As for B3, the binding result is “binds”.

In the case of B4, the binding result was “binds”.

Consider B5, for which the binding result is reported as “binds”.

Consider B6, for which the binding result was “binds”.

Another test addresses T4, human CD49a I domain K88N (human, UniProt P56199 151-364, K88N).
T4 construct: domain: I domain; not shown: myc and His tags
In words: ELISA on secreted mutant I domain.
B1: the binding result was “binds”.

B2: the binding result is on record as “binds”.

B3: the binding result is listed as “binds”.

For B4, the binding result is “binds”.

Take B5: the binding result is “binds”.

Consider B6, for which the binding result is “binds”.

The target in the next test is T5, human CD49a I domain E48K (human, UniProt P56199 151-364, E48K).
T5 construct: domain: I domain; not shown: myc and His tags
Kind of test: ELISA on secreted mutant I domain.
On to B1, for which the binding result is recorded as “binds”.

Take B2: the binding result is given as “binds”.

For B3, the binding result was “binds”.

On to B4, for which the binding result is reported as “binds”.

For the molecule B5, the binding result is reported as “binds”.

Take B6: the binding result is “no binding”.

The target of the next test is T6, human CD49a I domain I11F (human, UniProt P56199 151-364, I11F).
T6 construct: domain: I domain; not shown: myc and His tags
In words: ELISA on secreted mutant I domain.
Turning to B1, the binding result was “binds”.

As for B2, the binding result was “binds”.

Take B3: the binding result is reported as “binds”.

Turning to B4, the binding result is listed as “binds”.

As to B5, the binding result is on record as “binds”.

B6: the binding result is listed as “binds”.

Another test concerns the target T7, human CD49a I domain with residues 91-96 VQRGGR replaced by mouse GRRGGL (human, UniProt P56199 151-364, V91G; Q92R; R96L).
T7 construct: domain: I domain; also called V91G, Q92R, R96L; not shown: myc and His tags
Kind of test: ELISA on secreted mutant I domain.
On to B1, for which the binding result is “no binding”.

With B2, the binding result was “no binding”.

For B3, the binding result was “no binding”.

For B4, the binding result is “no binding”.

With B5, the binding result is reported as “no binding”.

Turning to B6, the binding result is recorded as “binds”.

A further test addresses T8, human CD49a I domain E66A (human, UniProt P56199 151-364, E66A).
T8 construct: domain: I domain; not shown: myc and His tags
Kind of test: ELISA on secreted mutant I domain.
As to B1, the binding result was “binds”.

Turning to B2, the binding result is “binds”.

For the molecule B3, the binding result was “no binding”.

For B4, the binding result is reported as “no binding”.

In the case of B5, the binding result is “binds”.

On to B6, for which the binding result was “binds”.

A further test has as its target T9, human CD49a I domain S162H (human, UniProt P56199 151-364, S162H).
T9 construct: domain: I domain; not shown: myc and His tags
In words: ELISA on secreted mutant I domain.
As to B1, the binding result was “no binding”.

As to B2, the binding result is “no binding”.

Take B3: the binding result was “binds”.

Regarding B4, the binding result is listed as “binds”.

As to B5, the binding result is given as “binds”.

On to B6, for which the binding result is recorded as “binds”.

A further test deals with T10, human CD49a I domain K142Q (human, UniProt P56199 151-364, K142Q).
T10 construct: domain: I domain; text prints KI42Q once; not shown: myc and His tags
Kind of test: ELISA on secreted mutant I domain.
As for B1, the binding result is “binds”.

Turning to B2, the binding result is “binds”.

As to B3, the binding result was “binds”.

As for B4, the binding result is reported as “binds”.

As for B5, the binding result is “binds”.

For B6, the binding result is given as “binds”.

The target in another test is T1, human VLA-1 α1 subunit (CD49a), …. In words: cell-based or functional assay. The source holds these as a separate data set.
Turning to B1, the “relative inhibition at an optimal concentration, CHO-VLA-1 adhesion to collagen IV” value (from here on “relative inhibition”) was over 80%.

B2: the “relative inhibition” value was over 80%.

Regarding B3, the “relative inhibition” value is over 80%.

Take B4: the “relative inhibition” value is over 80%.

For the molecule B5, the “relative inhibition” value was over 80%.

For the next test, the target named is T2, human VLA-1 (alpha 1/beta 1, …). In words: cell-based or functional assay. This is another data set of the same source.
With B1, the “% adhesion of T cells to collagen IV vs no antibody, 0.5 nM mAb, 10 ng/ml PMA” value is 93.7% and the “% adhesion of T cells to collagen IV vs no antibody, 5 nM mAb, 10 ng/ml PMA” value stood at 63.7%.

Turning to B2, the “% adhesion of T cells to collagen IV vs no antibody, 0.5 nM mAb, 10 ng/ml PMA” value was 98.4% and the “% adhesion of T cells to collagen IV vs no antibody, 5 nM mAb, 10 ng/ml PMA” value came to 55.5%.

Consider B3, for which the “% adhesion of T cells to collagen IV vs no antibody, 0.5 nM mAb, 10 ng/ml PMA” value is 85.4% and the “% adhesion of T cells to collagen IV vs no antibody, 5 nM mAb, 10 ng/ml PMA” value came out at 34.8%.

In the case of B5, the “% adhesion of T cells to collagen IV vs no antibody, 0.5 nM mAb, 10 ng/ml PMA” value stood at 89.8% and the “% adhesion of T cells to collagen IV vs no antibody, 5 nM mAb, 10 ng/ml PMA” value amounted to 56.6%.

Take B6: the “% adhesion of T cells to collagen IV vs no antibody, 0.5 nM mAb, 10 ng/ml PMA” value is 96.6% and the “% adhesion of T cells to collagen IV vs no antibody, 5 nM mAb, 10 ng/ml PMA” value is 91.9%.

The values are drawn from patent publication US20060286112A1 (published 2006).
